We go through one molecule from patent US10501748B2, “Methods and compositions for integration of an exogenous sequence within the genome of plants” (Dow AgroSciences LLC, priority 2013, dated 2019).

This data set has as its system endogenous AHAS genes (three homoeologous copies). Description: transient assay of ZFN-mediated HR-directed AHAS editing in biolistically transfected scutella of immature zygotic embryos. Type of data set: cell-based, Triticum aestivum. Conditions: for Editing Frequency (ppm): HR-directed, scutella. From the text:
Donor DNA designs were based on a plasmid DNA vector containing 750-bp homology arms (i.e. sequence identical to the endogenous AHAS gene) flanking each side of the target cleavage site for ZFNs 29732 and 29730. A plasmid DNA vector was designed for each of the three wheat sub-genomes: pDAS000132 (FIG. 3), pDAS000133 (FIG. 4) and pDAS000134 (FIG. 5) were designed to the A-, B- and D-genome, respectively (SEQ ID NO:65, SEQ ID NO:66, and SEQ ID NO:67). Each plasmid DNA vector was designed to introduce an S653N ([…]) mutation as a genomic modification conferring tolerance to imidazolinone class herbicides at the target homoeologous copy of the endogenous AHAS gene by ZFN-mediated HR-directed DNA repair. Two additional plasmid DNA constructs were also designed to target the D-genome. The first plasmid DNA, pDAS000135 (SEQ ID NO: 68) (FIG. 6), was identical to pDAS000134 except that it contained two additional (synonymous) single nucleotide point mutations, one each located at 15-bp upstream and downstream of the S653N mutation.
Seedlings of the donor wheat line were grown in an environment controlled growth room maintained at 18/16° C. (day/night) and a 16/8 hour (day/night) photoperiod with lighting provided at […]. Wheat spikes were collected at 12-14 days post-anthesis and were surface sterilized by soaking for 1 min in 70% (v/v) ethanol. The spikes were threshed and the immature seeds were sterilized for 15 min in 17% (v/v) bleach with gentle shaking, followed by rinsing at least three times with sterile distilled water. The embryos were aseptically isolated from the immature seeds under a dissecting microscope. The embryonic axis was removed using a sharp scalpel and discarded. The scutella were placed into a 9 cm PETRI™ dish containing osmotic MS (E3 maltose) medium, with the uncut scutellum oriented upwards. A total of 20 scutella were plated onto each 9 cm PETRI™ dish. The prepared embryos were pre-cultured in the dark at 26° C. for a minimum of 4 h before transfection using biolistics-mediated DNA delivery.
Gold particles for biolistic-mediated DNA delivery were prepared by adding 40 mg of 0.6 micron colloidal gold particles (BioRad) to 1 mL of sterile water in a 1.5 mL microtube. The gold particles were resuspended by vortexing for 5 min. To prepare sufficient material for 10 bombardments, a 50 μL aliquot of the gold particle suspension was transferred to a 1.5 mL microtube containing 5 μg of DNA resuspended in 5 μL of sterile water. Following thorough mixing by vortexing, 50 μL of 2.5 M CaCl2 and 20 μL of 0.1 M spermidine were added to the microtube, with thorough mixing after the addition of each reagent. The DNA-coated gold particles were pelleted by centrifugation for 1 min at maximum speed in a bench top microfuge. The supernatant was removed and 1 mL of 100% ethanol was added to wash and resuspend the gold particles. The gold particles were pelleted by centrifugation, as described above, and the supernatant discarded. The DNA-coated gold particles were resuspended in 110 μL of 100% ethanol and maintained on ice. Following a brief vortex, 10 μL of the gold particle solution was placed centrally onto a macro-carrier membrane and allowed to air dry.
The PDS-1000/HE PARTICLE GUN DELIVERY SYSTEM™ (BioRad) was used to transfect the scutella of immature zygotic wheat embryos by biolistic-mediated DNA delivery. Delivery of the DNA-coated gold particles was performed using the following settings: gap 2.5 cm, stopping plate aperture 0.8 cm, target distance 6.0 cm, vacuum 91.4-94.8 kPa, vacuum flow rate 5.0 and vent flow rate 4.5. The scutella of immature zygotic wheat embryos were bombarded using a 900 psi rupture disc. Each PETRI™ dish containing 20 scutella was bombarded once. The bombarded scutella were incubated at 26° C. in the dark for 16 h before being transferred onto medium for callus induction. The scutella were cultured on callus induction medium in the dark at 26° C. for 7 d. […]

B1: pDAS000132: plasmid donor DNA, 750-bp homology arms, A-genome, introduces S653N mutation; SEQ ID NO:65 (nucleic acid)
DNA: TGCAAGCAGGTCCAAGATTGTGCACATTGACATTGACCCAGCTGAGATTGGCAAGAACAAGCAGCCACATGTCTCCATTTGTGCAGATGTTAAGCTTGCTTTACAGGGGTTGAATGCTCTATTAAATGGGAGCAAAGCACAACAGGGTCTGGATTTTGGTCCATGGCACAAGGAGTTGGATCAGCAGAAGAGGGAGTTTCCTCTAGGATTCAAGACTTTTGGCGAGGCCATCCCGCCGCAATATGCTATCCAGGTACTGGATGAGCTGACAAAAGGGGAGGCGATCATTGCTACTGGTGTTGGGCAGCACCAGATGTGGGCGGCTCAGTATTACACTTACAAGCGGCCACGGCAGTGGCTGTCTTCGTCTGGTTGGGGGCAATGGGATTTGGGTTACCAGCTGCAGCTGGCGCTGCTGTGGCCAACCCAGGTGTTACAGTTGTTGACATTGATGGAGATGGTAGTTTCCTCATGAACATTCAGGAGTTGGCATTGATCCGTATTGAGAACCTCCCTGTGAAGGTGATGATATTGAACAACCAGCATCTGGGAATGGTGGTGCAATGGGAGGATAGGTTTTACAAGGCCAATCGGGCGCACACATACCTTGGCAACCCAGAAAATGAGAGTGAGATATATCCAGATTTTGTGACGATTGCTAAAGGATTCAACGTTCCGGCAGTTCGTGTGACGAAGAAGAGCGAAGTCACTGCAGCAATCAAGAAGATGCTTGAGACCCCAGGGCCATACTTGTTGGATATCATCGTCCCGCATCAGGAGCACGTGCTGCCTATGATCCCAAATGGTGGTGCTTTCAAGGACATGATCATGGAGGGTGATGGCAGGACCTCGTACTGAAATTTCGACCTACAAGACCTACAAGTGTGACATGCGCAATCAGCATGGTGCCCGCGTGTTGTATCAACTACTAGGGGTTCAACTGTGAACCATGCGTTTTCTAGTTTGCTTGTTTCATTCATATAAGCTTGTGTTACTTAGTTCCGAACCCTGTAGCTTTGTAGTCTATGCTCTCTTTTGTAGGGATGTGCTGTCATAAGATATCATGCAAGTTTCTTGTCCTACATATCAATAATAAGTACTTCCATGGAATAATTCTCAGTTCTGTTTTGAATTTTGCATCTTCTCACAAACAGTGTGCTGGTTCCTTTCTGTTACTTTACATGTCTGCCGTGTCCGGTTATGACATAATGACCGATGGAGGGTGGTCAGCAGGTTTTAGACGGGGAGTTGAAACTTTTTTTTGGGGGGAAGAAATCTGAATACAGTTGGGAGGAAAGATAAAAGCATATACCTTGATTAATTTATTGAGCCCAATATCCAGCCTAATTTATCAAGCAATAGGCAGTGTAGGGTGTTGGC
modifications: pDAS000132
With B1, the “Editing Frequency (ppm)” value (wheat sub-genome A, ZFN 29732-2A-29730, donor-to-ZFN molar ratio 5:1) is reported as 2,353 ppm; the “Editing Frequency (ppm)” value (wheat sub-genome A, ZFN 29732-2A-29730, donor-to-ZFN molar ratio 10:1) is 1,800 ppm; the “Editing Frequency (ppm)” value (wheat sub-genome A, ZFN n/a (donor only), average of three biological replicates) is listed as 5 ppm; the “Editing Frequency (ppm)” value (wheat sub-genome B, ZFN 29732-2A-29730, ratio 5:1) is recorded as 42 ppm; the “Editing Frequency (ppm)” value (wheat sub-genome B, ZFN 29732-2A-29730, ratio 10:1) is recorded as 30 ppm; the “Editing Frequency (ppm)” value (wheat sub-genome B, ZFN n/a (donor only)) is given as 0 ppm. Moreover, the “Editing Frequency (ppm)” value worked out at 110 ppm (wheat sub-genome D, ZFN 29732-2A-29730, ratio 5:1); 61 ppm (wheat sub-genome D, ZFN 29732-2A-29730, ratio 10:1); 0 ppm (wheat sub-genome D, ZFN n/a (donor only)). Moreover, the “molecular evidence for ZFN-mediated HR-directed editing in all three homoeologous copies of endogenous AHAS” value (co-transfected with pDAB109350, scutella (pDAS000131 and pDAS000134 also SEC protoplasts)) is “strong molecular evidence”.
